Laboratory results reported in patent EP3464323B1.
No end group written: not given here.

Biological target: CY5-CAS9:sgRNA complex (1:1 molar ratio) (S. pyogenes), Q99ZW2
Test: fluorescence titration; 5 nM CY5-CAS9:sgRNA (1:1) titrated with peptide, quadratic fit
Settings: remark: other sources report otherwise

CY5-CAS9:sgRNA complex (1:1 molar ratio) (S. pyogenes), Q99ZW2, sequence (Q99ZW2 whole entry, one chain of several): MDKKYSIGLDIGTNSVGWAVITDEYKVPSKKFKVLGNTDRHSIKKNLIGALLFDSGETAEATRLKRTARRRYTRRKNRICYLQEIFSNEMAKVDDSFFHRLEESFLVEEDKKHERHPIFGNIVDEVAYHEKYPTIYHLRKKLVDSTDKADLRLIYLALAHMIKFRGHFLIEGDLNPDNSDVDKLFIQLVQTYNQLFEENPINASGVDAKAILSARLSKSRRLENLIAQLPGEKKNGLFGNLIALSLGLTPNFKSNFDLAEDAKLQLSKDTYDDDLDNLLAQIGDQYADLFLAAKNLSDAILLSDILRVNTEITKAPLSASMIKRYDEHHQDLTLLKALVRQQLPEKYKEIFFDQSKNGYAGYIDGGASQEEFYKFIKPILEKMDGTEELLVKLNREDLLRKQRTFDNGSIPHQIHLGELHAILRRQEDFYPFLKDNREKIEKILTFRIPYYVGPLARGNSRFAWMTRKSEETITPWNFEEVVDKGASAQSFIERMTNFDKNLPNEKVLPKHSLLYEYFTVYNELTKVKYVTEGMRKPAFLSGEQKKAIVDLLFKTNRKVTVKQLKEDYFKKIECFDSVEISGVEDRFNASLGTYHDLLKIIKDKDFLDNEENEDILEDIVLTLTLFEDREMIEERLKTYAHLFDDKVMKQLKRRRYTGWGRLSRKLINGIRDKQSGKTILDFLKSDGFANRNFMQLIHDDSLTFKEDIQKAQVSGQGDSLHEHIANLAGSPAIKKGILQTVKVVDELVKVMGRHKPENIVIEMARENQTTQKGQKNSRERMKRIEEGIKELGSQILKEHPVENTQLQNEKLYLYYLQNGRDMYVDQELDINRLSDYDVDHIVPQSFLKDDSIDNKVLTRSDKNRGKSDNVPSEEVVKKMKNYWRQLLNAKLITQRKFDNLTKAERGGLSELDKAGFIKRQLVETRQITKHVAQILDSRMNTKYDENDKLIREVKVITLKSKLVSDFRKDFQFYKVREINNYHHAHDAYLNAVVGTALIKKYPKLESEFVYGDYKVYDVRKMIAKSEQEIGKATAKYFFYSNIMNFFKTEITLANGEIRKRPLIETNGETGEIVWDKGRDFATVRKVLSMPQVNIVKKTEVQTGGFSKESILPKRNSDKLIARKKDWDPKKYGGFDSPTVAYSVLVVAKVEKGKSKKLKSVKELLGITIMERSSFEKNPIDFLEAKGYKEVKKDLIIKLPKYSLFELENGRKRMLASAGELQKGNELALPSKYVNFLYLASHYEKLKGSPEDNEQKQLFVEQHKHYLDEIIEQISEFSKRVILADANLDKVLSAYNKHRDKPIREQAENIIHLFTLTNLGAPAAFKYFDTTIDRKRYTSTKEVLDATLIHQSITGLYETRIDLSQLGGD

Binder: GLWRALWRLLRSLWRLLWKV (also: acetate salt) [CADY]
- Kd: 21 nM
